The supplement of paper PMC10567573

B1: POMT2 (parent)
chain: YHEAPMTRKHYQVTGYGINGTGDS

Variants of: B1
Experiment: protein stability index of a GFP-peptide fusion (GPS, HEK-293T) (PSI 1-6); higher = more stable
Conditions: c terminus: a fixed tail appended
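Further: lentivirally expressed fusions sorted by FACS into six bins by GFP to DsRed ratio, PSI derived from sequencing read proportions per bin multiplied by bin number.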

Variant	protein stability index
YHEAPMTRKHYQVTGYGIKGTGDS [N19K]	2.44
YHEAPMTRKHYQVTGYGIPGTGDS [N19P]	2.4
YHEAPMTRKHYQVTGYGIIGTGDS [N19I]	1.9
YHEAPMTRKHYQVTGYGIEGTGDS [N19E]	1.9
YHEAPMTRKHYQVTGYGICGTGDS [N19C]	2.02
YHEAPMTRKHYQVTGYGIGGTGDS [N19G]	2.4
YHEAPMTRKHYQVTGYGILGTGDS [N19L]	2.06
YHEAPMTRKHYQVTGYGIVGTGDS [N19V]	2.03
YHEAPMTRKHYQVTGYGIDGTGDS [N19D]	1.88
YHEAPMTRKHYQVTGYGIQGTGDS [N19Q]	1.84
YHEAPMTRKHYQVTGYGITGTGDS [N19T]	2.21
YHEAPMTRKHYQVTGYGIHGTGDS [N19H]	2.25
YHEAPMTRKHYQVTGYGIFGTGDS [N19F]	2.3
YHEAPMTRKHYQVTGYGIWGTGDS [N19W]	2.24
YHEAPMTRKHYQVTGYGIRGTGDS [N19R]	1.73
YHEAPMTRKHYQVTGYGISGTGDS [N19S]	2.3
YHEAPMTRKHYQVTGYGIAGTGDS [N19A]	1.8
YHEAPMTRKHYQVTGYGIYGTGDS [N19Y]	2.57
YHEAPMTRKHYQVTGYGIMGTGDS [N19M]	2.62
YHEAPMTRKHYQVTGIGINGTGDS [Y16I]	2.47
YHEAPMTRKHYQVTGFGINGTGDS [Y16F]	1.75
YHEAPMTRKHYQVTGPGINGTGDS [Y16P]	2.92
YHEAPMTRKHYQVTGVGINGTGDS [Y16V]	2.47
YHEAPMTRKHYQVTGCGINGTGDS [Y16C]	2.51

Variant	protein stability index
YHEAPMTRKHYQVTGKGINGTGDS [Y16K]	3.2
YHEAPMTRKHYQVTGGGINGTGDS [Y16G]	2.9
YHEAPMTRKHYQVTGRGINGTGDS [Y16R]	3.36
YHEAPMTRKHYQVTGDGINGTGDS [Y16D]	3.66
YHEAPMTRKHYQVTGSGINGTGDS [Y16S]	2.67
YHEAPMTRKHYQVTGWGINGTGDS [Y16W]	1.75
YHEAPMTRKHYQVTGTGINGTGDS [Y16T]	2.53
YHEAPMTRKHYQVTGAGINGTGDS [Y16A]	2.48
YHEAPMTRKHYQVTGNGINGTGDS [Y16N]	2.43
YHEAPMTRKHYQVTGLGINGTGDS [Y16L]	1.97
YHEAPMTRKHYQVTGHGINGTGDS [Y16H]	2.79
YHEAPMTRKHYQVTGEGINGTGDS [Y16E]	3.3
YHEAPMTRKHYQVTGMGINGTGDS [Y16M]	2.3
YHEAPMTRKHYQVTGQGINGTGDS [Y16Q]	2.26
YHEAPMTRKHYQVTGYGLNGTGDS [I18L]	2.64
YHEAPMTRKHYQVTGYGWNGTGDS [I18W]	1.67
YHEAPMTRKHYQVTGYGTNGTGDS [I18T]	2.42
YHEAPMTRKHYQVTGYGYNGTGDS [I18Y]	2.07
YHEAPMTRKHYQVTGYGPNGTGDS [I18P]	2.36
YHEAPMTRKHYQVTGYGQNGTGDS [I18Q]	2.9
YHEAPMTRKHYQVTGYGVNGTGDS [I18V]	2.21
YHEAPMTRKHYQVTGYGENGTGDS [I18E]	2.95
YHEAPMTRKHYQVTGYGDNGTGDS [I18D]	2.9
YHEAPMTRKHYQVTGYGSNGTGDS [I18S]	2.22

Variant	protein stability index
YHEAPMTRKHYQVTGYGCNGTGDS [I18C]	2.37
YHEAPMTRKHYQVTGYGNNGTGDS [I18N]	2.42
YHEAPMTRKHYQVTGYGMNGTGDS [I18M]	2.3
YHEAPMTRKHYQVTGYGFNGTGDS [I18F]	2.47
YHEAPMTRKHYQVTGYGHNGTGDS [I18H]	2.47
YHEAPMTRKHYQVTGYGRNGTGDS [I18R]	2.55
YHEAPMTRKHYQVTGYGANGTGDS [I18A]	2.73
YHEAPMTRKHYQVTGYGKNGTGDS [I18K]	2.78
YHEAPMTRKHYQVTGYGGNGTGDS [I18G]	2.2
YHEAPMTRKHYLVTGYGINGTGDS [Q12L]	2.29
YHEAPMTRKHYNVTGYGINGTGDS [Q12N]	2.85
YHEAPMTRKHYWVTGYGINGTGDS [Q12W]	1.91
YHEAPMTRKHYCVTGYGINGTGDS [Q12C]	2.08
YHEAPMTRKHYVVTGYGINGTGDS [Q12V]	2.36
YHEAPMTRKHYEVTGYGINGTGDS [Q12E]	2.41
YHEAPMTRKHYMVTGYGINGTGDS [Q12M]	2.34
YHEAPMTRKHYGVTGYGINGTGDS [Q12G]	2.08
YHEAPMTRKHYFVTGYGINGTGDS [Q12F]	2.28
YHEAPMTRKHYKVTGYGINGTGDS [Q12K]	2.24
YHEAPMTRKHYSVTGYGINGTGDS [Q12S]	2.22
YHEAPMTRKHYAVTGYGINGTGDS [Q12A]	1.96
YHEAPMTRKHYTVTGYGINGTGDS [Q12T]	2.16
YHEAPMTRKHYHVTGYGINGTGDS [Q12H]	2.07
YHEAPMTRKHYRVTGYGINGTGDS [Q12R]	1.88

Variant	protein stability index
YHEAPMTRKHYIVTGYGINGTGDS [Q12I]	1.97
YHEAPMTRKHYPVTGYGINGTGDS [Q12P]	2.37
YHEAPMTRKHYYVTGYGINGTGDS [Q12Y]	2.46
YHEAPMTRKHYDVTGYGINGTGDS [Q12D]	3.05
YHEAPMTRKHYQVTGYYINGTGDS [G17Y]	2.26
YHEAPMTRKHYQVTGYDINGTGDS [G17D]	2.51
YHEAPMTRKHYQVTGYKINGTGDS [G17K]	2.13
YHEAPMTRKHYQVTGYAINGTGDS [G17A]	1.9
YHEAPMTRKHYQVTGYQINGTGDS [G17Q]	1.75
YHEAPMTRKHYQVTGYTINGTGDS [G17T]	2.24
YHEAPMTRKHYQVTGYEINGTGDS [G17E]	2.73
YHEAPMTRKHYQVTGYLINGTGDS [G17L]	2.5
YHEAPMTRKHYQVTGYFINGTGDS [G17F]	1.79
YHEAPMTRKHYQVTGYMINGTGDS [G17M]	1.84
YHEAPMTRKHYQVTGYIINGTGDS [G17I]	1.84
YHEAPMTRKHYQVTGYRINGTGDS [G17R]	2.37
YHEAPMTRKHYQVTGYCINGTGDS [G17C]	2.41
YHEAPMTRKHYQVTGYWINGTGDS [G17W]	2.6
YHEAPMTRKHYQVTGYNINGTGDS [G17N]	2.03
YHEAPMTRKHYQVTGYVINGTGDS [G17V]	2.08
YHEAPMTRKHYQVTGYHINGTGDS [G17H]	2.06
YHEAPMTRKHYQVTGYSINGTGDS [G17S]	1.62
YHEAPMTRKHYQVTGYPINGTGDS [G17P]	2.87
YHEAPMTRKHYQNTGYGINGTGDS [V13N]	2.65

Variant	protein stability index
YHEAPMTRKHYQYTGYGINGTGDS [V13Y]	2.97
YHEAPMTRKHYQCTGYGINGTGDS [V13C]	2.14
YHEAPMTRKHYQETGYGINGTGDS [V13E]	3.61
YHEAPMTRKHYQITGYGINGTGDS [V13I]	2.21
YHEAPMTRKHYQPTGYGINGTGDS [V13P]	2.34
YHEAPMTRKHYQTTGYGINGTGDS [V13T]	2.6
YHEAPMTRKHYQWTGYGINGTGDS [V13W]	2.23
YHEAPMTRKHYQHTGYGINGTGDS [V13H]	2.84
YHEAPMTRKHYQGTGYGINGTGDS [V13G]	2.52
YHEAPMTRKHYQATGYGINGTGDS [V13A]	2.76
YHEAPMTRKHYQKTGYGINGTGDS [V13K]	2.68
YHEAPMTRKHYQLTGYGINGTGDS [V13L]	2.69
YHEAPMTRKHYQRTGYGINGTGDS [V13R]	3.24
YHEAPMTRKHYQMTGYGINGTGDS [V13M]	2.59
YHEAPMTRKHYQQTGYGINGTGDS [V13Q]	3.11
YHEAPMTRKHYQSTGYGINGTGDS [V13S]	3.32
YHEAPMTRKHYQFTGYGINGTGDS [V13F]	2.08
YHEAPMTRKHYQDTGYGINGTGDS [V13D]	3.46
YHEAPMTRKHYQVTGYGINLTGDS [G20L]	2.21
YHEAPMTRKHYQVTGYGINFTGDS [G20F]	2.35
YHEAPMTRKHYQVTGYGINHTGDS [G20H]	2.26
YHEAPMTRKHYQVTGYGINKTGDS [G20K]	2.08
YHEAPMTRKHYQVTGYGINETGDS [G20E]	2.4
YHEAPMTRKHYQVTGYGINMTGDS [G20M]	1.98

Variant	protein stability index
YHEAPMTRKHYQVTGYGINATGDS [G20A]	2.45
YHEAPMTRKHYQVTGYGINDTGDS [G20D]	2.18
YHEAPMTRKHYQVTGYGINITGDS [G20I]	2.03
YHEAPMTRKHYQVTGYGINCTGDS [G20C]	1.86
YHEAPMTRKHYQVPGYGINGTGDS [T14P]	2.54
YHEAPMTRKHYQVNGYGINGTGDS [T14N]	2.39
YHEAPMTRKHYQVIGYGINGTGDS [T14I]	2.12
YHEAPMTRKHYQVEGYGINGTGDS [T14E]	2.96
YHEAPMTRKHYQVMGYGINGTGDS [T14M]	2.05
YHEAPMTRKHYQVCGYGINGTGDS [T14C]	3.13
YHEAPMTRKHYQVFGYGINGTGDS [T14F]	2.57
YHEAPMTRKHYQVKGYGINGTGDS [T14K]	1.97
YHEAPMTRKHYQVGGYGINGTGDS [T14G]	3.05
YHEAPMTRKHYQVYGYGINGTGDS [T14Y]	1.54
YHEAPMTRKHYQVDGYGINGTGDS [T14D]	3.36
YHEAPMTRKHYQVAGYGINGTGDS [T14A]	1.85
YHEAPMTRKHYQVQGYGINGTGDS [T14Q]	2.87
YHEAPMTRKHYQVLGYGINGTGDS [T14L]	1.99
YHEAPMTRKHYQVRGYGINGTGDS [T14R]	2.13
YHEAPMTRKHYQVSGYGINGTGDS [T14S]	2.03
YHEAPMTRKHYQVWGYGINGTGDS [T14W]	1.41
YHEAPMTRKHYQVHGYGINGTGDS [T14H]	2.53
YHEAPMTRKHYQVVGYGINGTGDS [T14V]	1.84
YHEAPMTRKHWQVTGYGINGTGDS [Y11W]	1.7

Variant	protein stability index
YHEAPMTRKHAQVTGYGINGTGDS [Y11A]	3.38
YHEAPMTRKHIQVTGYGINGTGDS [Y11I]	2.77
YHEAPMTRKHEQVTGYGINGTGDS [Y11E]	3.98
YHEAPMTRKHDQVTGYGINGTGDS [Y11D]	3.77
YHEAPMTRKHRQVTGYGINGTGDS [Y11R]	2.56
YHEAPMTRKHSQVTGYGINGTGDS [Y11S]	3.03
YHEAPMTRKHNQVTGYGINGTGDS [Y11N]	3.15
YHEAPMTRKHMQVTGYGINGTGDS [Y11M]	2.98
YHEAPMTRKHHQVTGYGINGTGDS [Y11H]	2.93
YHEAPMTRKHPQVTGYGINGTGDS [Y11P]	3.14
YHEAPMTRKHVQVTGYGINGTGDS [Y11V]	3.22
YHEAPMTRKHKQVTGYGINGTGDS [Y11K]	3.14
YHEAPMTRKHGQVTGYGINGTGDS [Y11G]	3.23
YHEAPMTRKHQQVTGYGINGTGDS [Y11Q]	3.57
YHEAPMTRKHFQVTGYGINGTGDS [Y11F]	2.01
YHEAPMTRKHTQVTGYGINGTGDS [Y11T]	3.17
YHEAPMTRKHCQVTGYGINGTGDS [Y11C]	3.06
YHEAPMTRKHLQVTGYGINGTGDS [Y11L]	2.75
YHEAPMTRKHYQVTSYGINGTGDS [G15S]	2.14
YHEAPMTRKHYQVTMYGINGTGDS [G15M]	2.03
YHEAPMTRKHYQVTAYGINGTGDS [G15A]	2.25
YHEAPMTRKHYQVTEYGINGTGDS [G15E]	3.36
YHEAPMTRKHYQVTFYGINGTGDS [G15F]	1.19
YHEAPMTRKHYQVTWYGINGTGDS [G15W]	2.28

Variant	protein stability index
YHEAPMTRKHYQVTQYGINGTGDS [G15Q]	1.88
YHEAPMTRKHYQVTTYGINGTGDS [G15T]	2.78
YHEAPMTRKHYQVTRYGINGTGDS [G15R]	2.02
YHEAPMTRKHYQVTVYGINGTGDS [G15V]	1.44
YHEAPMTRKHYQVTLYGINGTGDS [G15L]	1.51
YHEAPMTRKHYQVTCYGINGTGDS [G15C]	2.01
YHEAPMTRKHYQVTHYGINGTGDS [G15H]	2.63
YHEAPMTRKHYQVTPYGINGTGDS [G15P]	2.86
YHEAPMTRKHYQVTKYGINGTGDS [G15K]	2.71
YHEAPMTRKHYQVTNYGINGTGDS [G15N]	2.04
YHEAPMTRKHYQVTYYGINGTGDS [G15Y]	2.44
YHEAPMTRKHYQVTDYGINGTGDS [G15D]	2.31
YHEAPMTRKHYQVTIYGINGTGDS [G15I]	1.59
YHEAPMTRKTYQVTGYGINGTGDS [H10T]	2.08
YHEAPMTRKYYQVTGYGINGTGDS [H10Y]	1.33
YHEAPMTRKVYQVTGYGINGTGDS [H10V]	1.91
YHEAPMTRKWYQVTGYGINGTGDS [H10W]	2.49
YHEAPMTRKSYQVTGYGINGTGDS [H10S]	2.36
YHEAPMTRKRYQVTGYGINGTGDS [H10R]	1.94
YHEAPMTRKQYQVTGYGINGTGDS [H10Q]	2.87
